Assay results from US20150064134A1.

Tests used:
Assay in all cases: cell-based or functional assay
DDR2(h) (human) = molecular target: T1, DDR2(h) (human) (UniProt Q16832)
T1 sequence (looked up): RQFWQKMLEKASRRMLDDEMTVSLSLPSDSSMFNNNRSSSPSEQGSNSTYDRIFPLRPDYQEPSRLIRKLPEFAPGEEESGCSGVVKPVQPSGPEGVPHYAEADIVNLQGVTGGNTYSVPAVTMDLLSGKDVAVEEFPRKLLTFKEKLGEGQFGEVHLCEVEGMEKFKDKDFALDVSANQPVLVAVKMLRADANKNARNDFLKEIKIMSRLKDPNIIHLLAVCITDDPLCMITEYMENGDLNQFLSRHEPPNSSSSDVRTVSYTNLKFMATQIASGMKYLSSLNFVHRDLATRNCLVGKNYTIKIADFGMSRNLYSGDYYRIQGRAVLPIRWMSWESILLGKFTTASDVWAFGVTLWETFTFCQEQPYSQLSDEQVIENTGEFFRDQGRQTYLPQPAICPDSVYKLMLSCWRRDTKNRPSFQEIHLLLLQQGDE

EphA3(h) (human) = molecular target: T2, EphA3(h) (human) (UniProt P29320)
T2 sequence (looked up): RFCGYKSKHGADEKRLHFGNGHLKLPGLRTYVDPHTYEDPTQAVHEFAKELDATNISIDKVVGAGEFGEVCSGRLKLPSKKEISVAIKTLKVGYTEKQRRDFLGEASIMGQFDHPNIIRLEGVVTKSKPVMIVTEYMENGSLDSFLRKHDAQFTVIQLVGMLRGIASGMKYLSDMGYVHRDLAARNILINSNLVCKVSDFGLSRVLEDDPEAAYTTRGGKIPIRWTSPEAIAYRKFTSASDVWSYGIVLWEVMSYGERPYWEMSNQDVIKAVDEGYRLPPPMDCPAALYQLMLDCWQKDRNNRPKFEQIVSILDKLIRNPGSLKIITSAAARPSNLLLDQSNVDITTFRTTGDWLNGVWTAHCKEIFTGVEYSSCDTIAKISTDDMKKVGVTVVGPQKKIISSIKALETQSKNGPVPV

ZAP-70(h) (human) = ZAP-70(h) (human) (UniProt P43403)
CLK3(h) (human) = CLK3(h) (human) (UniProt P49761)
cSRC(h) (human) = cSRC(h) (human) (UniProt P12931)
PKCθ(h) (human) = PKCθ(h) (human) (UniProt Q04759)
Ron(h) (human) = Ron(h) (human) (UniProt Q04912)
Hck(h) activated (human) = Hck(h) activated (human) (UniProt P08631)
Abl(Y253F)(h) (human) = Abl(Y253F)(h) (human) (UniProt P00519)
KDR(h) (human) = KDR(h) (human) (UniProt P35968)
IRAK1(h) (human) = IRAK1(h) (human) (UniProt P51617)
CK1δ(h) (human) = CK1δ(h) (human) (UniProt P48730)
cKit(D816V)(h) (human) = cKit(D816V)(h) (human) (UniProt P10721)
CaMKIδ(h) (human) = CaMKIδ(h) (human) (UniProt Q8IU85)
FGFR4(h) (human) = FGFR4(h) (human) (UniProt P22455)
TSSK1(h) (human) = molecular target: T3, TSSK1(h) (human) (UniProt Q9BXA7)
T3 sequence (looked up): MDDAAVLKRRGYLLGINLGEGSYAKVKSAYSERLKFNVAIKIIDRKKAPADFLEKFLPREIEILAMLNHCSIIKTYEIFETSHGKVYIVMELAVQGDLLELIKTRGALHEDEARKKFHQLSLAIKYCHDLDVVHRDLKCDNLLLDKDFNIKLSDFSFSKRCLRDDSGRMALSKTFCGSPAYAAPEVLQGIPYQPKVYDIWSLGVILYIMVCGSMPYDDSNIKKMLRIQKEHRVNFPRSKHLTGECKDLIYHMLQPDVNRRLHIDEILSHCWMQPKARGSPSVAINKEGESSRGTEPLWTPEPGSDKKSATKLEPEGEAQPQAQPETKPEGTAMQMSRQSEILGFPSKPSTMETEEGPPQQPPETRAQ

Lck(h) activated (human) = Lck(h) activated (human) (UniProt P06239)
Pim-3(h) (human) = Pim-3(h) (human) (UniProt Q86V86)
ULK3(h) (human) = molecular target: T4, ULK3(h) (human) (UniProt Q6PHR2)
T4 sequence (looked up): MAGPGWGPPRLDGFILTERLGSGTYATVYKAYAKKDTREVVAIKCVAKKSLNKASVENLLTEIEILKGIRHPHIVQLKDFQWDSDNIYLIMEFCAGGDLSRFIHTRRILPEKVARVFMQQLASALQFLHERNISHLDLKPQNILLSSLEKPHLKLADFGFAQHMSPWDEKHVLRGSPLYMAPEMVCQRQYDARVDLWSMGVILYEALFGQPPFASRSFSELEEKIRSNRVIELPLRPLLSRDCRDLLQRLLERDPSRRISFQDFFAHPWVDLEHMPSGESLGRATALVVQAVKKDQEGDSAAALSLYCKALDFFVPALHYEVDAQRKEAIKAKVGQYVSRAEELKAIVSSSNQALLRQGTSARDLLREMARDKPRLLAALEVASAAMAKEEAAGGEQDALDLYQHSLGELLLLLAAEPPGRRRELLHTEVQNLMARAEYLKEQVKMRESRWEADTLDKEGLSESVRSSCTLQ

Abl(Y253F)(h) (human), sequence (P00519 27-1130 Y253F limits assumed): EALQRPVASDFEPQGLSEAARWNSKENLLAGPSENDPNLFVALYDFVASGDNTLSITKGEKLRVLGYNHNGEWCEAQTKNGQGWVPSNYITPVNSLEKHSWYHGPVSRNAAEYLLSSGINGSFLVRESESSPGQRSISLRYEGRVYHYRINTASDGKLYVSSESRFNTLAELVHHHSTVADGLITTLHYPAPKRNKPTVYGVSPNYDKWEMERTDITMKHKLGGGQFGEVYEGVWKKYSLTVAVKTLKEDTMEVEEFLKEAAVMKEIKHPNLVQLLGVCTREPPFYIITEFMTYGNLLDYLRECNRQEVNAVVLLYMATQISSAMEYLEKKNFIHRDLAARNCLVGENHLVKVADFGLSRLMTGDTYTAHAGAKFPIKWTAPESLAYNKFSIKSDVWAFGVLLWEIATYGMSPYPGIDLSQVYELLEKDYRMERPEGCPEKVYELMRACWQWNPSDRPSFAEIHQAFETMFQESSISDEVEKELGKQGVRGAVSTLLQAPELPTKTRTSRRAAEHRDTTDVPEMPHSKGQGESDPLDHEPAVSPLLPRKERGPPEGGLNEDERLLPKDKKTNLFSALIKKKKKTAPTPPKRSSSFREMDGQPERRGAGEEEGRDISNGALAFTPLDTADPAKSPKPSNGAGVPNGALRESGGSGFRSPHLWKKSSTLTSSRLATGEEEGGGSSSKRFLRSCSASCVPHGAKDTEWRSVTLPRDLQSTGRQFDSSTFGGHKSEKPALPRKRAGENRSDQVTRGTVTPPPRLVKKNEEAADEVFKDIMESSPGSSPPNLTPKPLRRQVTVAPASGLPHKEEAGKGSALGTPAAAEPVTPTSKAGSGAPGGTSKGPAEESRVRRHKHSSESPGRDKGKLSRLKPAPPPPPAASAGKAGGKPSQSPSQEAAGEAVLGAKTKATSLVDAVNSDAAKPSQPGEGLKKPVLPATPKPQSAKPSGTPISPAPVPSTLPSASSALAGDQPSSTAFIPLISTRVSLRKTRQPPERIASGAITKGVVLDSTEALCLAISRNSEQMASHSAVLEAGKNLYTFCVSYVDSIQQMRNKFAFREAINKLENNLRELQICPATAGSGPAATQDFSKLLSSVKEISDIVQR
cKit(D816V)(h) (human), sequence (P10721 544-976 D816V): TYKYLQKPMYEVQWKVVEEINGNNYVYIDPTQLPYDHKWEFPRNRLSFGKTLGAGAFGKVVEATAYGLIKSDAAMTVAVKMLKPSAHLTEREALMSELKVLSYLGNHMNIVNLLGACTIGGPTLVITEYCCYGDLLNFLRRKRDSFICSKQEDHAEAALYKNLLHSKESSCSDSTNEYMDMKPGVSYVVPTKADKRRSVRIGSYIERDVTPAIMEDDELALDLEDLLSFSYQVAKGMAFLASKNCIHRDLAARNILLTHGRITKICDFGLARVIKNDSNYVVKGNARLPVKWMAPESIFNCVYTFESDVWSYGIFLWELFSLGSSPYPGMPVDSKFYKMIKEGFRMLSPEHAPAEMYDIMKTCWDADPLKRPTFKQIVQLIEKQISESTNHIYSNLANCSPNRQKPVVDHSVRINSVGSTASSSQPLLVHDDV
Ron(h) (human), sequence (Q04912 983-1400 limits assumed): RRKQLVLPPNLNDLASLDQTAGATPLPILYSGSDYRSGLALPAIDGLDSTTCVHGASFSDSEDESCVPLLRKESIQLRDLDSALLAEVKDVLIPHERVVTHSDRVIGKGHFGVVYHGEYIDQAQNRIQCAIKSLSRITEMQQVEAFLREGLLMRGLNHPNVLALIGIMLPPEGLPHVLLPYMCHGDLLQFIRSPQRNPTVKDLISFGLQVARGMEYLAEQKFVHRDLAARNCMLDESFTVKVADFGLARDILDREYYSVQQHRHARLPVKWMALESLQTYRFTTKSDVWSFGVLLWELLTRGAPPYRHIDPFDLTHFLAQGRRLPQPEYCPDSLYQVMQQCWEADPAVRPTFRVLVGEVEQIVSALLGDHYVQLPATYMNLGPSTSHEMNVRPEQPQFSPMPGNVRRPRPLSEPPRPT
FGFR4(h) (human), sequence (P22455 442-753 limits assumed): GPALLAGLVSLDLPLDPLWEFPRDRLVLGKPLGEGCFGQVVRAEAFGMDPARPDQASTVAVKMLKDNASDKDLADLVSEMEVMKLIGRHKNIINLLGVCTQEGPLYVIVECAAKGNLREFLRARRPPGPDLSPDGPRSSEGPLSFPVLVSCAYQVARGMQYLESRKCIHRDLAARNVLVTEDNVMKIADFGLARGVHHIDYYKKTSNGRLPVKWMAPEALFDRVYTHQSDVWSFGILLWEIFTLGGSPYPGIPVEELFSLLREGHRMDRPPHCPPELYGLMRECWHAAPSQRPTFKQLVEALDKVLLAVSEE
ZAP-70(h) (human), sequence (P43403 whole entry): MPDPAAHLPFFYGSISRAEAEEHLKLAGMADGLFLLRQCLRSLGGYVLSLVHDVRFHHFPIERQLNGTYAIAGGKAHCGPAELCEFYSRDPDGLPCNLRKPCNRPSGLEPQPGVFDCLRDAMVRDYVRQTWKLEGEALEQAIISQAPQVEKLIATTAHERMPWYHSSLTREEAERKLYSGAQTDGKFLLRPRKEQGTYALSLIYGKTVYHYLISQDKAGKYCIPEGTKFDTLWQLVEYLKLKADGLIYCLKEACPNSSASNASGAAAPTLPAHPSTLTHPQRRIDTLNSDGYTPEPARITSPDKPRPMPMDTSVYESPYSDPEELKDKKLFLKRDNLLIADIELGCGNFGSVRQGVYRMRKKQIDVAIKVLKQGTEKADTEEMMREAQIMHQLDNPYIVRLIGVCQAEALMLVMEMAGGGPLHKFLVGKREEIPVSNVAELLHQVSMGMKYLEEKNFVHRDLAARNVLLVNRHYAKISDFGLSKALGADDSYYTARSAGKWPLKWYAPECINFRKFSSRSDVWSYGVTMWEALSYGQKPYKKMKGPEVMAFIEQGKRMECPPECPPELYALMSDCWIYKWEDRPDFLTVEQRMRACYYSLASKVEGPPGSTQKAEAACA

% activity at 100 µM (DDR2(h) (human))	% activity at 100 µM (EphA3(h) (human))	% activity at 100 µM (ZAP-70(h) (human))	% activity at 100 µM (CLK3(h) (human))	% activity at 100 µM (cSRC(h) (human))	% activity at 100 µM (PKCθ(h) (human))	% activity at 100 µM (Ron(h) (human))	% activity at 100 µM (Hck(h) activated (human))	% activity at 100 µM (Abl(Y253F)(h) (human))	% activity at 100 µM (KDR(h) (human))	% activity at 100 µM (IRAK1(h) (human))	% activity at 100 µM (CK1δ(h) (human))	% activity at 100 µM (cKit(D816V)(h) (human))	% activity at 100 µM (CaMKIδ(h) (human))	% activity at 100 µM (FGFR4(h) (human))	% activity at 100 µM (TSSK1(h) (human))	% activity at 100 µM (Lck(h) activated (human))	% activity at 100 µM (Pim-3(h) (human))	% activity at 100 µM (ULK3(h) (human))	Substance
95%	12%	33%	84%	14%	76%	79%	81%	78%	94%	93%	93%	35%	17%	19%	79%	216%	80%	147%	MMI-0400 (peptide)
79%	33%	1%	76%	30%	62%	46%	67%	29%	15%	5%	78%	30%	0%	3%	46%	76%	37%	177%	MMI-0500 (peptide)
94%	6%	75%	61%	26%	88%	93%	82%	86%	101%	95%	92%	60%	10%	28%	79%	243%	80%	167%	MMI-0300 (peptide)
